Assay: Stability of EVH1 mutant in aqueous solution
Type: physicochemical

B1: EVH1 Y39E: phosphomimetic Y39E mutant of human VASP EVH1 domain (protein)
chain: GPGGRMSSETVICSSRATVMLYDDGNKRWLPAGTGPQAFSRVQIEHNPTANSFRVVGRKMQPDQQVVINCAIVRGVKYNQATPNFHQWRDARQVWGLNFGSKEDAAQFAAGMASALEALEG
modifications: left off: His tag, end not stated, cleaved
- stability in aqueous solution: stable in aqueous solution

From publication PMC5724578 (Biochemistry, 2017)
